{"source": "paper PMC11930087", "about": "“Mobility of four structural regions drives isoform-specific properties of photoenzyme LPOR in plants” (The Journal of Biological Chemistry, 2025)", "proteins": {"B1": {"name": "light-dependent protochlorophyllide oxidoreductase B from Arabidopsis thaliana (enzyme)", "chain": "QTAATSSPTVTKSVDGKKTLRKGNVVVTGASSGLGLATAKALAETGKWNVIMACRDFLKAERAAKSVGMPKDSYTVMHLDLASLDSVRQFVDNFRRTETPLDVLVCNAAVYFPTAKEPTYSAEGFELSVATNHLGHFLLARLLLDDLKKSDYPSKRLIIVGSITGNTNTLAGNVPPKANLGDLRGLAGGLNGLNSSAMIDGGDFDGAKAYKDSKVCNMLTMQEFHRRFHEETGVTFASLYPGCIASTGLFREHIPLFRALFPPFQKYITKGYVSETESGKRLAQVVSDPSLTKSGVYWSWNNASASFENQLSEEASDVEKARKVWEISEKLVGLA", "notes": "LPOR B of Arabidopsis thaliana, P21218; probably without the transit peptide, as the constructs cloned here; In the assays it stood with Pchlide, NADPH and lipids; also called AtPORB; LPOR"}}, "target": "the molecule itself", "assay": "negative-stain transmission electron microscopy; reaction mixtures of 5 μM Pchlide, 15 μM AtPORB, 200 μM NADPH and either 100 μM lowMGDG lipid mixture (2.5 mol% MGDG, 47.5 mol% PG, 50 mol% DGDG) or OPT lipids; filaments seen"}
{"protein": "B1", "values": [{"measurement": "binding result", "value": "binds"}]}
